Experimental data reported in US9663800B2, “Alkane exporter and its use” (Nanyang Technological University, priority 2012, dated 2017).

What was measured:
[1] = test system: ABC2 mRNA; assay: Quantitative RT-PCR of ABC2 transcripts after alkane treatment; type: cell-based; settings: Y. lipolytica CLIB122, 24 h alkane treated vs. untreated, normalized to actin, p<0.05
Description: FIG. 3. mRNA transcripts levels of ABC2 and ABC3 in Y. lipolytica. Quantitative RT-PCR analysis of ABC2 (A) and ABC3 (B) in Y. lipolytica cells corresponding to treatment with octane, nonane, decane, undecane and dodecane (C8-C12). Each value of qRT-PCR was normalized to β-actin expression levels and expressed as the fold change relative to the levels detected in control samples, which were cells without alkane treatment and set equal to 1. Error bars represent the SD of triplicate.
To assess whether ABC1, ABC2, ABC3 and ABC4 are involved in alkane transport in Y. lipolytica, we analysed the effects of alkanes with different chain length (C8-C12) on the transcription levels of these four ABC transporter genes using quantitative RT-PCR.
Total RNA samples from 24 h alkane treated and untreated Y. lipolytica CLIB122 cells were prepared using RNeasy Mini Kit (Qiagen), followed by cDNA synthesis using H minus Reverse transcriptase kit (Fermentas). Quantitative RT-PCR analysis was performed on a Bio-Rad iQ5 real-time PCR detection system using SsoFast EvaGreen Supermix kit (Bio-Rad). The actin gene (YALI0D08272g) was used as reference gene for Y. lipolytica. Relative mRNA levels were derived using comparative CT method.

[2] = test system: S. cerevisiae BY4741; assay: Alkane susceptibility test in liquid culture; type: cell-based, Saccharomyces cerevisiae
Method: (§1) FIG. 2. Alkane susceptibility test for S. cerevisiae. The alkane susceptibility was tested in cells expressing ABC2/3 or with empty plasmid. (A) Alkane susceptibility test on agar plate. Serial dilutions of cells expressing ABC2/3 were spotted on agar plates with alkanes (decane, undecane) as vapour phase. Plates were incubated at 28° C. for 2 days. (B) Alkane susceptibility test in liquid culture. Overnight cell culture was diluted into induction medium (final OD600=0.4) with different alkanes (decane & undecane) concentrations. The plates were incubated for 48 hr at 28° C. The OD600 value of each sample was determined and plotted against its corresponding alkane concentration. Symbols for strains are: control sample with empty plasmid (open circle), cells expressing ABC2 (filled circle), cell expressing ABC3 (filled triangle).
Overnight culture was diluted into 5 ml induction medium in 50 ml glass bottle (Sigma) at an initial OD600 of 0.4. Alkanes were added as different final concentration. Bottles were sealed tightly with butyl rubber stopper (Sigma) and silver aluminum seal (Sigma). Liquid culture was performed at 28° C. with shaking. Growth was monitored by measuring the OD600 at different time point. Cell culture used for time point OD checking was collected from the glass bottle using needle and syringe.
To further analyze the effect of ABC2 and ABC3 toward decane and undecane, alkane susceptibility tests in liquid culture were conducted. […] With the expression of ABC2, decane tolerance was boosted about 80-fold (20% vs. 0.25% decane) and cells can survive in 20% undecane. For ABC3, decane tolerance is increased slightly by about 3-fold (0.75% vs. 0.25% decane) and cells are resistant to 20% undecane. It is apparent that the expression of ABC2 and ABC3 transporters improved the tolerance toward C10 and C11 alkanes.

[3] = test system: S. cerevisiae BY4741; assay: Intracellular alkane accumulation (GC-FID) in cells expressing ABC2/3; type: cell-based, Saccharomyces cerevisiae; settings: S. cerevisiae BY4741 expressing the transporter, 48 h, control with empty plasmid
Method: FIG. 1. Intracellular alkane accumulation by ABC2 and ABC3. S. cerevisiae BY4741 with and without ABC2/3 were cultured under exposure of 0.5% alkane or 20% undecane. After 48 h incubation, intracellular alkane levels were measured. Intracellular alkane levels were normalized to that of control carrying empty plasmid. Data shown are the mean±SD of four biological replicates.
Intracellular alkane accumulation was analysed with GC-FID after 48 h incubation with 0.5% decane or 20% undecane.
After induction for 48 h with or without addition of alkanes, S. cerevisiae cells transformed with pYES2, pYES2ABC2 and pYES2ABC3 were harvested at 6000 g for 5 min at 4° C. After washing with 50 mM Tris.Cl, cells were equally divided into two parts, one part for alkane GC analysis and the other for determination of total protein concentration. For GC analysis, cell pellets were re-suspended in freshly prepared Chloroform/Methanol (v/v, 2:1). Dodecane was added into cell suspension as an internal standard. Acid-washed glass beads were added until the suspension was covered. Cells were then lysed by mechanical agitation using FastPrep-24 (MPBio) for 6 min at 6 m/s. The crude extract was obtained by pipette. After addition of autoclaved ddH2O, the crude extract was emulsified for 10 min by inversion. After centrifuge, the crude extract was separated into two phases. The bottom phase containing alkane was transferred into a new 1.5 ml microcentrifuge tube and purified as above with HPLC grade chloroform and autoclaved ddH2O until particulate matter was no longer observable. The purified solution was transferred into a clear GC vial for GC analysis. To check the total protein concentration, Cell pellets were re-suspended into 50 mM Tris.Cl and lysed via mechanical agitation with acid-washed glass beads using FastPrep-24 for 6 min at 6 m/s. Protein concentration of obtained crude extract was determined using the Bradford protein assay (Bio-Rad). Intracellular alkane levels were normalized to internal standard and cell lysate protein content.

[4] = test system: S. cerevisiae BY4741; assay: Alkane susceptibility test on agar plate; type: cell-based, Saccharomyces cerevisiae; settings: cells expressing the transporter, 28° C., 2 days
Method: as §1
Alkane susceptibility test on plates was performed according to the methods of Mauersberger et al.. Exponentially growing cells in induction medium were centrifuged and re-suspended with induction medium at OD600=1. Ten microliter aliquots of successive 10-fold dilutions (non diluted, 10-1, 10-2, 10-3) of cells were spotted onto the induction medium plate. Medium chain alkanes were supplied as vapour phase by placing 200 μl alkane on a sterile filter paper in the lid of the petri dish. Plates were incubated at 28° C. for 2 days.
Toxicity test was implemented to study the effect of ABC2 and ABC3 on the tolerance of the cells toward alkanes. The toxic effects of alkanes on S. cerevisiae with ABC2 and ABC3 were measured through alkane susceptibility test on agar plates. […] It was observed that the expression of ABC2 would lead higher tolerance toward decane than ABC3.

Row | Molecule | mRNA levels of ABC2 [1] | alkane concentration causing a significant decrease in viability of the control cells ([2]; control cells with empty plasmid, 48 hr, 28° C.) [%] | lower intracellular decane level relative to the control ([3]; 0.5% decane) [fold] | reduction of intracellular undecane level compared to the control sample ([3]; 20% undecane) | decane tolerance increase ([2]; cells expressing the transporter vs. control (0.25% decane), 48 hr, 28° C., OD600) | survival in 20% undecane ([2]; cells expressing the transporter, 20% undecane) | decane concentration tolerated ([2]; cells expressing the transporter, 48 hr, 28° C., control 0.25% decane) [%] | cell tolerance toward decane ([4]; decane as vapour phase) | cell tolerance toward undecane ([4]; undecane as vapour phase)
1 | CCCCCCCC [octane] | significantly increased | – | – | – | – | – | – | – | –
2 | CCCCCCCCCCC [undecane] | significantly increased | 20 | – | – | – | – | – | – | –
3 | ABC2: Y. lipolytica ABC transporter, SEQ ID NO. 4, GenBank CAG82364, heterologously expressed in S. cerevisiae (protein, listed as Yarrowia lipolytica) MEQTPPDYTGLDKNIDAEVRSIAESMYQTRREGVNDSDTDEELQRTNTIQPNLNVNPFLDTSDPQLDPLSKEFNSRKWIKTILGLKARFGNSRSISAGVSFKNLSAFGYGGGNDYQKTFTNSVMAIGPMIKKVLGGNKGSEVQILRHFDGLVRAGETCVVLGRPGSGCTTFLKSVACETYGFHLGEKSEWNYQGVPRDVMQKNARGEIVYNAEVDVHFPHLTVGDTLLFAALARTPQNRLEGVSREQHATHVRDVSMAMLGLTHTMDTKVGNDFVRGVSGGERKRVSIAESVVCGAPLQCWDNSTRGLDAANATEFIRSLRLSAEMTDASMFVSLYQASQEAYDMFDKVCVLYEGRQIYFGKTTEAKQFFLDLGFDCADRQTTGDFLTSLTNPIERIIRPGWESRVPRTPDDFEKCWLESEARQLLLQDIDEFNNEFVLGGPALDNFMGLRKDAQAKHTRVQSPYTISWPMQTRLCLWRGFLRIKGDMSTDIATVFGNFVMALVLSSMFYNMPQTTESFFSRGALLFFAILINAFASILEILSLYEQRPIVDKQNRYAMYHPAADALAAIITTFPTKTLTLVSVNLTIYFMTNLRREVGPFFIFFLFSLLCTMAMSMIFRTIGSVTKTLEQALAPASIIILALVIYTGFSLPISYMHGWARWINWLNPVAYGFEAVMVNEFRNREYECSMFVPSGGAYENVSLDYRSCAAVGAEPGLRFVNGDAFINQSYEYYNAHLWRNMGILFGFIIFFGAFYLFAVEYIQGAKSKGEVLVFRKEHIKKQRKEKNGDIESGVTMAGEKGTQESESSNTSINLQAQRGIYQWKDVCYDIKVKDGERRLLDHVDGFVKPGTLTALMGASGAGKTTLLDVLADRKSTGVVTGEMLVNGEHRDGSFQRKTGYVQQQDLHTATATVRESLEFSALLRQPSSIPESEKLAYVDEVIRILEMETYADAVVGVPGEGLNVEQRKRLTIGVELAAKPELLLFLDEPTSGLDSQTAWSIVKLLKKLAANGQAILCTIHQPSAILFQEFDRLLFLASGGRTVYYGDIGPQSSILTEYFERNGADPCPKQGNPAEWMLEVIGAAPGSTAKRDWPVVWAESPERAAKREELDEMARTVERVQTNTTERDSTGYSDSDQFAVGWWTQFKIVSKRQFQALWRTPSYLWSKVFLCAASAIFIGFSFFKAPNDMQGLQNKMFSFFMLFLIFNTVVEQIIPQFDKMRELYEARERSSKTYSWQVFMGSNMVVELIWQFFMGVIVFFCFYYPVGFQWTAEYNDSVHERGGLFFLYVLLLFLYNSTFAHMLIAGIDNKDTAAQIGTLLFTLMLLFCGVLATKEQMPGFWVFMYRVSPLTYFVGGMMATGMGRAPVTCSPHELVRFPAVPGKSCGEYMDGFISALGDSAGYLVSSSADMCEYCPMKSSDQFLDSVDISYTQRWRNWGILWAYPLFNIFAAFALYYFFRVPKKSKAQKA | – | – | ~5 | approximately 30 fold | about 80 fold | can survive | 20 | considerably improved | considerably improved
